Results reported in paper PMC6651687.

Biological target: T1, TTHA0973 (PaaR, TetR family) (Thermus thermophilus HB8) (UniProt Q5SJN5)
T1 sequence: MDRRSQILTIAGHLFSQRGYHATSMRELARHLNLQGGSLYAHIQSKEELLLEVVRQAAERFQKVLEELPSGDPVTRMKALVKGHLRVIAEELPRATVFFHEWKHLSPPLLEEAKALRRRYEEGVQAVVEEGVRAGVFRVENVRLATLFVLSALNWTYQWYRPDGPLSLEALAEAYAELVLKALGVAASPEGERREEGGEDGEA
Test: BLI
Conditions: BLI with 11, 33, 100, 300 nM TTHA0973; EMSA 0-100 nM; buffer, salt, pH, temperature not given (cited protocol)

In the case of “CTAGGAATTCGTGCAGAGGTGAATACCTAGCGTTACTTTTACCATCCCTCCAGAAGCTTGGACA (double strand) [ST2_0973_0647bp]”, the Kd is reported as 99.5 nM.
